A protein production outcome set (Wang et al. 2014)

Assay: label from the status in PepcDB records
In the case of “MAHIEKVPQRPGFSWRYRRIDEVEKEYDLHFHDDVFELVIHRHFTGSLHIGHHELEVTHNQMLLIAPGVPHSIHSTLVESKCETHVIWFKREWIANLMFYCAELRKLDPLLKAANKGVVFSERTAQHVVDLLHELMTFPAMEQLSRFLHVLSLIAHDEGAKTLMTHSYLSMSEHELQERERVASVNAYLEQHFATKVTLADLANYLSLSESAVTRLFQKHFKEPFSQRLMKLRINHAADLLQSTSLPIGIVFERVGYRNQALFNRHFKTYKGLTPRDYRQHYQQRIQP”, the protein production is reported as “failed”. For “MAHLVITIGCEYGAKGNQIGKKVAKDLGIKFYDRDTVDEIIKEVGIPKDIMEKVEEGITIAGKGAEGDVRGSFSKYADLTERAIHVQKTIIRKLSDRESCVIIGRSADYILKEHKPILRIFIYSPDEVRIENVMKSHNLSEDDAKLFITEKDKRYHKRHMALTGSNRGDRHNRDMLIDSSLLGVDGTAELIESLARKVVENESKTEAGGDK”, the protein production was “not failed”. For “MAHVRLFRHYIHLPFVILGLIDLIVMGLAFALAVFFRFFGELEFFLDNLVFVLPSITIFALFNLIVMIALGVHQSRVEEGMSGMMLRTIMAMILAIPLHGFAYFVADDWLWYLGSFGLLTSATVLGIFSLGIARVVFFAVVGKDRFKRRVLVLGAGRRAKQMFEDLTTPFNRKGFSLDGFVPMPDDTVEVDEQYLINLPTSLHDYVLRHPVREIVVAVDDRRRGLPMEDLLECKMEGVHIIDGANFYERESRKVALEMITRGWLVFSDGFTVSSVYGVGKRALDVLASGTLLLATFPIMILTAIAIKLEDGLKAPVIYSQERVGLNNQVFKVHKFRSMITDAEKNGAVWARKNDTRVTRVGEFIRKVRIDELPQIFNVLNGTMAFVGPRPERPVFVEQLSEKIPFYAERHRVKPGLTGWAQLCFAYADNEEDTREKLRYDLYYIKNQSLLLDLLIIIQTVEVVLFKKGSR”, the protein production was “failed”. With “MAIASSSPSSSSNVSVIPTGPQVFISFRGKELRKGFISFLVPALKKKNINVFIDEHEVRGKDLISLFRRIGESKIALVIFSEGYTESKWCLDELVQIKKCVDQKKIIAIPIFYKLDPAVVKGLKGKFGDKFRDLIERYHHEPERYQKWTEALTSVSRTFALCLPEHRLRFFNHKNCLFLVAQDTNDKSEKDFIRSIIKEVKKALSNISRERNGDREEIDDCFVVSERKLTTDMYDTPE” the protein production was “failed”. In the case of “MAIDTTSSAPVHEPQPPLDTRLSTRDKLVLFVLCAAQFMVALDFSVLNVALPVLGRDLGMSQSALQWAVTAFALPSGGFLLLFGRIGDLYGRRRLFLTGLALFGTASLLATFAWDPASFLAGRALQGLGAAAIVPTGMSLLTTTFPEGPARDRALGISGTLLSLGFTVGMVAGGVLTDAFGWRSTMGLLTLFALIVLPLAPGLLPESRTPDRPRLDIPGAVTVTGGLLSLIYALSTAAERGFGGTDVIATLVAGVLLLAAFVTVESHAEAPLVSLPMLRRRTVAWGNLGGLITFSMMSTVVFVLTLYLQETLGLSAFETGLVFGVQGVLSAVAGANASKVIGRLGARRTLVVSLAGQGAFVATLVALGDGGWSVWLATAAVSLASMCHLGAIISYGLTVTSGVPDDEQGLATGLVTSTQQVGITIGIPLLGVLATTSSDLLAGVHTVLALDAVIVLAAAVLIAVGLGRRPATAPGAASGAVEAEAVGSR”, the protein production is reported as “failed”. In the case of “MAIESGYILTTPCKNEEKSLPELAESIINQTITPKLWLIINDNSTDNSAKILRDIETKYNWIRVVTSEGQKRDLSFHYAEVVRYGLSLSLEISSAEKIPVEYIGLIDADMILEKNFFEKMIDRFEQDPNLGVASGSTAYFEAENLVTEKGRDNLPIGGLRVWRRECLIETGGFPLSYSADSVSNVLALLHGWETKKFEDIIGIQTRRTGSAEGLWKGYITKGESDYYRDYHPVYVLSKFIKYSFTHPFYIGIAYMEGYINGIVKIKKKICIPEVRRYYRKKHLEIGRYYAGKFKFKLLEHHHHHH”, the protein production is reported as “failed”. With “MAIGMSELKKGLKIELGGVPYRIVEYQHVKPGKGAAFVRAKIKSFLDGKVIEKTFHAGDKCEEPNLVEKTMQYLYHDGDTYQFMDIESYEQIALNDSQVGEASKWMLDGMQVQVLLHNDKAISVDVPQVVALKIVETAPNFKGDTSSASKKPATLETGAVVQVPFHVLEGEIIKVNTETEEYLEKVK” the protein production was “failed”. In the case of “MAIIASNNSWDLYQLAVVILNYRTPQLVVDCLASLVSQIDPQTQQVIVVDNASGDDSVEEIEKAIANNNWQDWVRLLPSDVNGGFSAGNNLGIQAIRAENYLLLNSDTIVRPGAIQTLLVALEQYPEAGLFSPRLEWPDGTPQISCFRDHSPLSEMIDGARTSVITKLLQPFDVPIPVTEQSFEPQWTSFACVLIRRSVVEQIGLMDDGYFMYYDDIDYCRRARQAAWKIRYIPQASVVHLRGGSGSVKSDVASRKRPRPYLYASRSRYFAKFYGPLGLALANLGWLGGWGIAALREILGQKEPHTCDRQWQDIWFQWRQPLKPYRPELEHHHHHH”, the protein production is reported as “not failed”. In the case of “MAIKFQYNKTSLQQLEKQLKVRVRTLPIIKNKESALRMEVKRCKTEAAGLEERLEKQIQAYEAMFALWNEFDASLIKVSDVHLGIKKIAGVRVPLLENVDFDIRPYSLFNSPKWYSDGIYLLKGLAQTAIEREFMLAKLNLLEHARKKTTQKVNLFEKVQIPGYQDALRKIKRFMEDEENLSKSSQKILKSIQEKRKEAEA”, the protein production is reported as “not failed”. With “MAIKVGINGFGRIGRSFFRASWGREEIEIVAINDLTDAKHLAHLLKYDSVHGIFKGSVEAKDDSIVVDGKEIKVFAQKDPSQIPWGDLGVDVVIEATGVFRDRENASKHLQGGAKKVIITAPAKNPDITVVLGVNEEKYNPKEHNIISNASCTTNCLAPCVKVLNEAFGVEKGYMVTVHAYTNDQRLLDLPHKDFRRARAAAINIVPTTTGAAKAIGEVIPELKGKLDGTARRVPVPDGSLIDLTVVVNKAPSSVEEVNEKFREAAQKYRESGKVYLKEILQYCEDPIVSTDIVGNPHSAIFDAPLTQVIDNLVHIAAWYDNEWGYSCRLRDLVIYLAERGL” the protein production was “not failed”. For “MAIRDAFGLTFSGATETGFTPYSQAVRELLCFIGDPVASVDRAILADPGFVMAHVFKGYLFGLATERDATAVARACHEAALPLAATTREEAHVLALGHLANGRWHDAARILEDVAIETPLDALALQVGHQIDFFTGNARMLRDRIARALPSWQSGMPGYHAILGMQAFGLEEMGDYTRAEKLGRTAVEIEPRDGWAQHAVAHVMEMQSRQRDGIVWMRANPEAWTKESFLQVHNWWHLALFHYDLGEIDQVLALYDGPIYGAPSAMALNMVDASALLWRLHLGGIDVGDRWAALAANWPKAGAGDYAFNDAHAMMAFVGAGLDGPALALLEAQREAMHGSGDNAAFTRDVGHPLTLAIKAFGEANYTEAVQLIRPIRAIANRFGGSHAQRDVIDLTLIEAALRAGDRALAGALTAERSMARPDSPLSVLLARRAADLSEN”, the protein production was “failed”. For “MAISKDLYPSQEDLLYEEELLRNQFSLKLWWRYLIAKAESPFKKRFIIYERALKALPGSYKLWYAYLRERLDIVRNLPVTHPQYDSLNNTFERGLVTMHKMPRIWVMYLQTLTVQQLITRTRRTFDRALCALPVTQHDRIWEPYLVFVSQNGIPIETSLRVYRRYLMYDPSHIEEFIEFLVKSERWQESAERLASVLNDDKFYSIKGKTKHKLWLELCELLVHHANVISGLNVDAIIRGGIRKFTDEVGMLWTSLADYYIRKNLLEKARDIYEEGMMKVVTVRDFSVIFDVYSRFEESTVAKKMEMMSSSDEEDENEENGVEDDEEDVRLNFNLSVKELQRKILNGFWLNDDNDVDLRLARLEELMNRRPALANSVLLRQNPHNVEQWHRRVKIFEGNAAKQILTYTEAVRTVDPMKAVGKPHTLWVAFAKLYENHKDLVNTRVIFDKAVQVNYKTVDHLASVWCEWAEMELRHKNFKGALELMRRATAVPTVEVRRRVAADGNEPVQMKLHRSLRLWSFYVDLEESLGTLESTRAVYEKILDLRIATPQIIMNYAFLLEENKYFEDAFKVYERGVKIFKYPHVKDIWVTYLTKFVKRYGKTKLERARELFEHAVSMAPSDAVRTLYLQYAKLEEDYGLAKRAMKVYEEATKKVPEGQKLEMYEIYISRAAEIFGVPRTREIYEQAIESGLPHKDVKIMCIKFAELERSLGEIDRARALYKYSSQFADPRSDPEFWNKWHEFEVQHGNEDTYREMLRIKRSVSASYSQTHFILPENMMQKDKLLDVEDAKGELKRAGLPEDEMAALERQLLSTTTPTEPAKDGGRRVGFVSAGVISQSGENEGKPVTGNGEDIELPDESDDESDGDDHVEISQKEVPAAVFGGLARKRDEDGEEAGEDGAAQKLGALERIKRQKLNQ”, the protein production was “failed”. For “MAKAGGITNAVNVGIAVQADWENREFISHISLNVRRLFEFLVQFGKPHSLTYFSVLGFEFN”, the protein production was “failed”.
